Laboratory results as given in paper PMC10354751 (Bioengineering & Translational Medicine, 2023).

T1: T1 synthetic peptide (without cysteine residues) (Plasmodium falciparum, synthetic peptide)
T1 construct: source: synthetic peptide
T1 chain: DPNANPNVDPNANPNV

T2: B3 synthetic peptide, (NANP)3 (without cysteine residues) (Plasmodium falciparum, synthetic peptide)
T2 construct: three NANP repeats of the major repeat region of Plasmodium falciparum circumsporozoite protein; written out from the printed formula (NANP)3; source: synthetic peptide
T2 chain: NANPNANPNANP

B1: 2A10 antibody (antibody, V domains shown)
VH: QIQLVQSGPELKKPGETVKISCKASGYTFTNYGINWVKQAPGKGLKWMGWINTITEEPTFAEEFTGRFAFSLETSASTAYLQINNLKNEDTATYFCARGSEFGRLVYWGQGASVTVSS
VL: DIQMTQTTSSLSASLGDRVTISCSASQGISNYLNWYQQKPDGTVKLLIFYTSTLYSGVPSRFSGSGSGTDYSLTISNLEPEDIATYYCQQYSRFPYVFGGGTKLEIK
notes: heavy chain gene cloned into the TGEX-HC vector; light chain gene cloned into the TGEX-LC vector; treated as one molecule; also called mAb 2A10; monoclonal antibody 2A10; source: HEK293F, transfected, purified (MabSelect SuRe)

How the values were obtained:
[1] = target: SpyCatcher-mi3 nanoparticle; experiment: SDS-PAGE of the covalent SpyTag-SpyCatcher conjugate + dynamic light scattering; cPfCSP and SpyCatcher-mi3 mixed and allowed to react overnight at 4°C; conjugate band at ~65 kDa; diameter 48 nm against 34 nm; conditions: scale: cPfCSP molecules per SpyCatcher-mi3 nanoparticle
[2] = target: T3, full-length recombinant PfCSP (Plasmodium falciparum, strain of the …, UniProt Q7K740); experiment: ELISA; competition: 5 ng/mL mAb 2A10 pre-incubated with 0.5, 5 or 50 μg/mL of T1 or B3 peptide without cysteines, then allowed to bind to plates coated with PfCSP; signal normalised to that without peptide; conditions: both partners purified
T3 construct: Plasmodium falciparum circumsporozoite protein; source: E. coli, recombinant, provided by Gennova (Pune, India)

[3] = target: T1, T1 synthetic peptide (without cysteine …); experiment: as above; conditions: both partners purified
[4] = target: T2, B3 synthetic peptide, (NANP)3 (without …); experiment: as above; conditions: both partners purified

T3 sequence (Q7K740 19-374): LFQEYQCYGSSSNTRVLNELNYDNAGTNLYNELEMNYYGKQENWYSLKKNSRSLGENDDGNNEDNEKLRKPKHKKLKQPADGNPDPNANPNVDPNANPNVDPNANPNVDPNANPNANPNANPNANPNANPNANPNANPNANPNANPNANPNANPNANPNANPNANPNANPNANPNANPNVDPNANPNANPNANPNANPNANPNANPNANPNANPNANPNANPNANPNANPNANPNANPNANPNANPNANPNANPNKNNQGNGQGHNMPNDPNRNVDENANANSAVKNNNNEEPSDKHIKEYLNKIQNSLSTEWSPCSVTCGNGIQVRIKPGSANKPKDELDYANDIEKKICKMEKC

Molecule	stoichiometry N [1]	binding result [2]	binding result [3]	binding result [4]
chimeric PfCSP (cPfCSP) with C-terminal GPGPG spacer, SpyTag and 6x His-tag (from UniProt Q7K740 82-104; Q7K740 311-340; Q7K740 341-397)	3.2			
B1		binds	binds	binds
